In US20240287172A1 (SCIRHOM, published 2024):

Experiments:
hiR2-FL-P532A-T7 = biological target: T1, hiR2-FL-P532A-T7 (human, UniProt Q6PJF5 1-856); experiment: FACS on MEF-DKO cells expressing the variant, 3 µg/ml antibody
T1 sequence: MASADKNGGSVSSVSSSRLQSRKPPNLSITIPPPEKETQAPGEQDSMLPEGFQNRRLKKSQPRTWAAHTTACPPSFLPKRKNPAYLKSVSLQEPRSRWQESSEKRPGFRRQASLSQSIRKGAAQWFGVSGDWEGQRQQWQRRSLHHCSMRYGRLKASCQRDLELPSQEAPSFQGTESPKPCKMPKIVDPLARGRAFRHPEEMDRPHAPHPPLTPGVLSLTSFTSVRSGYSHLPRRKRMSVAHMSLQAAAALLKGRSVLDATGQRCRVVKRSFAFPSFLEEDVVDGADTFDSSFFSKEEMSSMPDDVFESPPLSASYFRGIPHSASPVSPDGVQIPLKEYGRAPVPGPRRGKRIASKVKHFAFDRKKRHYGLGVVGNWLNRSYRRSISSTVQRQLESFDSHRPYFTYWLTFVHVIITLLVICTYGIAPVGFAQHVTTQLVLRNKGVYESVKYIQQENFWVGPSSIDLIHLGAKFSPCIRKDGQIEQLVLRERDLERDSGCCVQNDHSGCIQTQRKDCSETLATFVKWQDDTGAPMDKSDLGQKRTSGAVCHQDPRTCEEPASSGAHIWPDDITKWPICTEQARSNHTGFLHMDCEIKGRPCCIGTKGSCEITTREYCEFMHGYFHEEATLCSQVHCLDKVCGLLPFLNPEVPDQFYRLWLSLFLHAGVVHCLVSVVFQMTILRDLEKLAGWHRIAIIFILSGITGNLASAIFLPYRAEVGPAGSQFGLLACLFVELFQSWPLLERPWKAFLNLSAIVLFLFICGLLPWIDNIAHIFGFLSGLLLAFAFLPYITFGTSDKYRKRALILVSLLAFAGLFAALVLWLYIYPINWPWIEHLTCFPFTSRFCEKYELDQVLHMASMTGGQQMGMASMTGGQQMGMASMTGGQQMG
Outline: (§1)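 Primary stain: antibody 3 μg/ml, 1 h on ice; controls buffer alone. Secondary: PE anti-mouse IgG F(ab′)2 1:100, 1 h on ice, light-protected. Washes at 4° C; read by flow cytometry.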

hiR2-FL-M591A-T7 = biological target: T2, hiR2-FL-M591A-T7 (human, UniProt Q6PJF5 1-856); experiment: as above
T2 sequence: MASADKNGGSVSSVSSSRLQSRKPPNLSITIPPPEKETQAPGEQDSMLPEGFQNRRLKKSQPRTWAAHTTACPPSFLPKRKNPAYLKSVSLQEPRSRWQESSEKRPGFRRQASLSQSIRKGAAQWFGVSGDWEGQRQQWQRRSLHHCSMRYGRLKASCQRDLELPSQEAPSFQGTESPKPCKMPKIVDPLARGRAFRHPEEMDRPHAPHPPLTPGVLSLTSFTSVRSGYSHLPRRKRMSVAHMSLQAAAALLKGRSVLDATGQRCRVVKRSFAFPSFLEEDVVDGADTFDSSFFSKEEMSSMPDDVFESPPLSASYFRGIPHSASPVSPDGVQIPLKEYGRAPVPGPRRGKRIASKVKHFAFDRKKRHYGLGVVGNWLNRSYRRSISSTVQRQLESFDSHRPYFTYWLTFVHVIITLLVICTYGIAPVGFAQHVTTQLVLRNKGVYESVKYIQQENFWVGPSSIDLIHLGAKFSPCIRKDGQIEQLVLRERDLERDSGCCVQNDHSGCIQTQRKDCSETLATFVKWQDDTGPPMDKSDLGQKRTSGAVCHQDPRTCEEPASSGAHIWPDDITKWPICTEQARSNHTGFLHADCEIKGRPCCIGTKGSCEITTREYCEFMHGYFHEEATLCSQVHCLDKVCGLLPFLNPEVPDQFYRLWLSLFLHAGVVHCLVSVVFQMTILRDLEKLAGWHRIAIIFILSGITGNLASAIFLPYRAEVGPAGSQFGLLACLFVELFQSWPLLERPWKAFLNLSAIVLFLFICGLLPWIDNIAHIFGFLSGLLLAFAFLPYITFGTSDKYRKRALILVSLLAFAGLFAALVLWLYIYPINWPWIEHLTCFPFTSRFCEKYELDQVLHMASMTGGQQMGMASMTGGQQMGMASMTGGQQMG
Outline: as §1

Binder	loss of binding vs wild type (hiR2-FL-P532A-T7)	loss of binding vs wild type (hiR2-FL-M591A-T7)
antibody 5 (antibody, V domains shown, mouse IgG, kappa light chain; also called clone #5; purified antibody 5) VH: QVTLKESGPGILQPSQTLSLTCSFSGFSLSTFGMGVGWIRQPSGKGLEWLAHIWWDDEKYYNSALKSRLTISKATSKNQAFLKIANVDTADTATYYCARISNYGSNYWYFNVWGTGTTVTVSS VL: QVVLTQSPALMSASPGEKVTMTCSAGSSVSCMYWYQQKPGSSPRVLIYDTSNLASGVPARFTGSGSGTSYSLTISRMEAEDAASYYCQQWNSYPLTFGAGTKLELK	≥ 30%	
antibody 44 (antibody, V domains shown, mouse IgG, kappa light chain; also called clone #44; purified antibody 44) VH: QVTLKESGPGILQPSQTLSLTCSFSGFSLSTFGMGVGWIRQPSEKGLEWLAHIWWDDDKYYNPALKSRLTISKDTSKNQIFLKITNVDTAETATYYCSRIGNYGSNYWYFDVWGTGTTVTVSS VL: QIVLTQSPAVMSASPGEKVTMTCTASSSVYYMYWYQQTPGSSPRLLIYDTSNLASGVPVRFSGSGSGTSYSLTISRMEAEDAATYYCQQWNTYPLTFGAGTKLELK	≥ 30%	
antibody 48 (antibody, V domains shown, mouse IgG, kappa light chain; also called clone #48; purified antibody 48) VH: QVQLQQSGTELVRPGTSVKVSCKASGYAFTNYLIEWVKQRPGQGLEWIGVINPGSGFTKYNEKFKGKATLTADKSSSTVYMHLSSLTSEDSAVYFCARGLYRAMDYWGQGTSVTVSS VL: DIQMTQSPASQSASLGESVTITCLASQTIATWLAWYQQKPGKSPQLLIYGATTLADGVPSRFSGGGSGTKFSFKISSLQAEDFVSYYCQQLYSTPYTFGGGTKLEIK		≥ 30%
antibody 50 (antibody, V domains shown, mouse IgG, kappa light chain; also called clone #50; purified antibody 50) VH: QVQLQQSGAELVRPGASVKVSCKASGYAFSNYLIEWVKQRPGQGLEWIGVINPGSGFTKYNEKFKGKATLTADKSSSTAYMQLSSLTSEDSAVYFCARGLYRAMDYWGQGTSVTVSS VL: DIQMTQSPASQSASLGESVTITCLASQTIGTWLAWYQQKPGKSPQLLIYAAASLADGVPSRFSGGGSGTKFSFKISSLQAEDFVNYYCQQIYSTPYTFGGGTKLEIK		≥ 30%
